The source of these data is patent publication US20230279077A1.

Where a chain is given by its changes, count along the chain named.

Experiment [1] addresses HSV-1 glycoprotein D-Fc fusion protein (HSV-1) (UniProt Q69091). As to the kind of experiment: SPR single-cycle kinetics, G-Fc captured on anti-human IgG, 25 C, 1:1 Binding fit; item G19, curve Fc=2-1; Table 6 calls the fit to the 1:1 model poor.
For experiment [2] the target is unchanged. As to the kind of experiment: SPR single-cycle kinetics, G-Fc captured on anti-human IgG, 25 C, 1:1 Binding fit; item G19 2, curve Fc=3-1; Table 6 calls the fit to the 1:1 model poor.
Experiment [3] shares this target. Description: phage ELISA, glycoprotein D coated, anti-M13 HRP; well C3. For orientation: An ELISA detects its analyte on a solid surface through an enzyme-linked reagent.
For experiment [4] the target is unchanged. As to the kind of experiment: SPR, G-Fc captured on anti-human IgG; high end tied to G77 by Table 6. On the technique in general: In SPR one partner is held on a chip, and binding of the other changes the refractive index at the surface.
Experiment [5] has the same target. As to the kind of experiment: phage ELISA, glycoprotein D coated, anti-M13 HRP; well E10.
Experiment [6] shares this target. As to the kind of experiment: SPR Biacore T200, single cycle kinetics, G-Fc captured on anti-human IgG, 1:1 fit, second run.
For experiment [7] the target is unchanged. As to the kind of experiment: SPR Biacore T200, single cycle kinetics, G-Fc captured on anti-human IgG, 1:1 fit.
For experiment [8] the target is unchanged. Description: phage ELISA, glycoprotein D coated, anti-M13 HRP; well B4.
The target is the same in experiment [9]. As to the kind of experiment: phage ELISA, glycoprotein D coated, anti-M13 HRP; well C5.
Experiment [10] has the same target. Description: phage ELISA, glycoprotein D coated, anti-M13 HRP; well C6.
Experiment [11] has the same target. As to the kind of experiment: phage ELISA, glycoprotein D coated, anti-M13 HRP; well D6.
The target is the same in experiment [12]. As to the kind of experiment: SPR, G-Fc captured on anti-human IgG; low end tied to G44 by Table 6.
For experiment [13] the target is unchanged. As to the kind of experiment: phage ELISA, glycoprotein D coated, anti-M13 HRP; well H3.
Experiment [14] shares this target. Description: phage ELISA, glycoprotein D coated, anti-M13 HRP; well D2.
For experiment [15] the target is unchanged. As to the kind of experiment: phage ELISA, glycoprotein D coated, anti-M13 HRP; well G11.
For experiment [16] the target is unchanged. As to the kind of experiment: phage ELISA, glycoprotein D coated, anti-M13 HRP; well H8.
For experiment [17] the target is unchanged. As to the kind of experiment: phage ELISA, glycoprotein D coated, anti-M13 HRP; well D1.
Experiment [18] has the same target. Description: phage ELISA, glycoprotein D coated, anti-M13 HRP; well F1.
The target is the same in experiment [19]. Description: phage ELISA, glycoprotein D coated, anti-M13 HRP; well A6.
For experiment [20] the target is unchanged. As to the kind of experiment: phage ELISA, glycoprotein D coated, anti-M13 HRP; well H5.
For experiment [21] the target is unchanged. Description: phage ELISA, glycoprotein D coated, anti-M13 HRP; well B2.
For experiment [22] the target is unchanged. As to the kind of experiment: phage ELISA, glycoprotein D coated, anti-M13 HRP; well D3.
The target is the same in experiment [23]. Description: phage ELISA, glycoprotein D coated, anti-M13 HRP; well H1.
The target is the same in experiment [24]. As to the kind of experiment: phage ELISA, glycoprotein D coated, anti-M13 HRP; well C8.
Experiment [25] has the same target. As to the kind of experiment: phage ELISA, glycoprotein D coated, anti-M13 HRP; well F3.
Experiment [26] shares this target. Description: phage ELISA, glycoprotein D coated, anti-M13 HRP; well D5.

B1: 3-G-19_M13R (VHH, not shown: small tags and cut ends)
VHH: QVKLEESGGGLVQPGGSLRLSCTASGFSFAFKDYAMSWVRQAPGKGLEWVSTMSGGGGDTKYADSVKGRFTISRDNNKNTVYLQMNSLKPEDTAVYYCAKGWITTNQFADAPRGQGTQVTVSS
Usually Kd stands for the constant that tells how readily two partners part at equilibrium. A word on the koff: it is the rate constant with which the complex falls apart. A low value points to a long-lived complex. The term kon denotes the second-order rate constant of association. A lower kon goes with slower complex formation. With B1, in experiment [1], the Kd is 1.73 nM, the off-rate constant (koff) was 0.000368 s⁻¹ and the association rate constant (kon) came out at 213000 M⁻¹ s⁻¹. In [2], this molecule showed a Kd of 1.71 nM, a dissociation rate constant (koff) of 0.000368 s⁻¹ and an association rate constant (kon) of 216000 M⁻¹ s⁻¹. The molecule also gave an A450 nm in experiment [3] of 1.07.

B2: 3-G-77_M13R (VHH, not shown: small tags and cut ends)
VHH: B1 VHH with K3Q, E5V, T23S, D33N, T105N, D110F
As to B2, the Kd amounted to 0.2 nM in experiment [4], 0.18 nM in experiment [6] and 0.183 nM in [7]. In experiment [5], this molecule returned an A450 nm of 1.25. The figures for the dissociation rate constant (koff) in [6] and in experiment [7] were 0.00102 s⁻¹ and 0.00093 s⁻¹, respectively. Besides, the kon in experiment [6] amounted to 5.67e+06 M⁻¹ s⁻¹; in [7], 5.07e+06 M⁻¹ s⁻¹.

B3: 3G-26 (VHH)
VHH: B1 VHH with K3Q, E5V, D33N, N77A, K100E, N106D, D110S
Consider B3, for which the A450 nm in [8] is 0.892.

B4: 3G-35 (VHH)
VHH: B1 VHH with Q1D, K3Q, E5V, E6D, T23S, F29S, D33N, T105N, D110S
In experiment [9], B4 showed an A450 nm of 1.13.

B5: 3G-43 (VHH)
VHH: B1 VHH with Q1A, K3Q, E5V, T23S, D33N, K100E, T105N, D110S
The molecule B5 displayed an A450 nm in experiment [10] of 1.19.

B6: 3-G-44_M13R (VHH, not shown: small tags and cut ends)
VHH: B1 VHH with K3Q, E5V, D33N, N77A, T80A, N106D, D110T
For B6, in [11], the A450 nm was 1.05. In experiment [6], this molecule had a Kd of 0.048 nM, a koff of 0.000299 s⁻¹ and a kon of 6.2e+06 M⁻¹ s⁻¹. Moreover, in [7], the dissociation constant Kd came out at 0.051 nM, the dissociation rate constant (koff) was found to be 0.000281 s⁻¹ and the on-rate (kon) is 5.47e+06 M⁻¹ s⁻¹. The molecule further displayed a Kd in experiment [12] of 0.05 nM.

B7: 3G-24 (VHH)
VHH: B1 VHH with V12A, D33N, N77A, N106D, D110S, Q115H
B7 had an A450 nm in experiment [13] of 1.09.

B8: 3G-12 (VHH)
VHH: DVQLVESGGGLVQPGGSLRLSCAASGFSFSFKNYAMTWVRQAPGKGLEWVSTMSGGGDETKYADSVKGRFTISRDNTKNTLYLQMNSLKPEDTAVYYCAKGWITTDRFTNTPRGQGTQVTVSS
As for B8, the A450 nm in experiment [14] is 1.01.

B9: 3G-87 (VHH)
VHH: B8 VHH with K32E, T37S, D58G, E59D, T77A, T80M, P112L
Regarding B9, the A450 nm in experiment [15] turned out to be 1.13.

B10: 3G-64 (VHH)
VHH: B8 VHH with D1Q, T37S, G56S, D58G, E59D, T77A, N110D, T111A
In turn, B10 registered an A450 nm in [16] of 0.985.

B11: 3G-4 (VHH)
VHH: B8 VHH with D1Q, Q3K, V5E, T37S
In experiment [17], B11 registered an A450 nm of 1.09.

B12: 3G-6 (VHH)
VHH: B8 VHH with D1Q, A23T, T37S, D58G, E59D, T77A, N110D
B12 registered an A450 nm in experiment [18] of 0.951.

B13: 3-G-41_M13R (VHH, not shown: small tags and cut ends)
VHH: B8 VHH with D1Q, T37S, D58G, E59D, T60I, T77A, R107Q
In [19], B13 had an A450 nm of 0.805. Further, in experiment [6], the dissociation constant (Kd) was found to be 0.092 nM, the off-rate (koff) was 0.000279 s⁻¹ and the kon is 3.05e+06 M⁻¹ s⁻¹. Further, in experiment [7], the Kd worked out at 0.096 nM, the off-rate (koff) was found to be 0.000274 s⁻¹ and the kon stood at 2.85e+06 M⁻¹ s⁻¹.

B14: 3G-40 (VHH)
VHH: QVKLEESGGGLAQPGGSLRLSCAASGFSFSFKNYAMSWVRQAPGKGLEWVSTMSGGGGDIKYADSVKGRFTISRDNAKNTLYLQMNSLKPEDTAVYYCAKGWIATDQFTNTPRGQGTQVTVSS
For B14, the A450 nm in [20] stood at 1.09.

B15: 3G-10 (VHH)
VHH: QVQLVESGGGLVQPGGSLKLSCASSESIFAFKNYAMSWVRQAPGKGLEWVSTMSGGGGDTKYADSVKGRFTISRDNAKNTVYLQMNSLKPEDTAVYYCAKGWITTDQFASAPRGHGTQVTVSS
Turning to B15, the A450 nm in experiment [21] was 1.14.

B16: 3G-20 (VHH)
VHH: EVQLVESGGGLVQPGGSLTLSCAASGFSFSFENYAMSWVRQAPGKGLEWVSTMSGGGGDIKYADSVKGRFTISRDNAKNTLYLQMNNLKPEDSAVYYCAKGWITTNRLTNTPRGQGTQVTVSS
On to B16, for which the A450 nm in experiment [22] came out at 1.18.

B17: 3G-8 (VHH)
VHH: B16 VHH with E1H, L108F
With B17, the A450 nm in experiment [23] worked out at 0.933.

B18: 3G-59 (VHH)
VHH: B16 VHH with E1Q, T105A, L108F
The molecule B18 returned an A450 nm in experiment [24] of 1.16.

B19: 3G-22 (VHH)
VHH: B16 VHH with E1Q, L108F, T111I
As to B19, in experiment [25], the A450 nm was found to be 1.14.

B20: 3G-36 (VHH)
VHH: B16 VHH with E1Q, R107Q, L108F
Consider B20, for which the A450 nm in experiment [26] worked out at 0.934.
